Values quoted from earlier work in paper PMC5394478.

Tests used:
[1] = biological target: IFNLR1 Box1 (Homo sapiens) (UniProt Q8IU57); test: Biolayer Interferometry
[2] = biological target: IFNLR1 Box1-Box2 (Homo sapiens) (UniProt Q8IU57); test: Biolayer Interferometry

Substance: JAK1 FERM-SH2 (from UniProt P23458)
- Kd [1]: 1200 nM
- Kd [2]: 70 nM
